Data published in a protein production outcome set (Wang et al. 2014).

Experiment: label from the status in PepcDB records

| Sequence | protein production |
| --- | --- |
| MIQQLLVTFPPMLFGAQALLTLLLIKGDICPGQRGRLHKMLPAIGVLWLAVASLRIEAFMVVFAIFYFYSQVQTKKTREKGPLWALHLANGLAFAYVSIQVFEQPNWPASAAMAVMIFFLGASFSQLLLTIARSRLQAFHRILPVTGIVSGMLLVLATLFSSYQLDEATLASATQPILISLALLISTIVVWCWHIFTHKAPEKVQLSIALLLALASMTSLQGLFALAV | failed |
| MIRFQPITTSDVQHYKFMEELLVESFPPEEYRELEHLREYTDRIGNFHNNIIFDDDLPIGFITYWDFDEFYYVEHFATNPALRNGGYGKRTLEHLCEFLKRPIVLEVERPVEEMAKRRINFYQRHGFTLWEKDYYQPPYKEGDDFLPMYLMVHG | failed |
| MMSNLIILPMLLPFVCALILVFTKNKNRISKILSITTMIVNTMISIALLIYVVNHKPITLDFGGWKAPFGIQFLGDSLSLLMVSVSSFVVTLIMAYGFGRGEKRVNRFHLPTFILLLTVGVIGSFLTSDLFNLYVMFEIMLLASFVLVTLGQSVEQLRAAIVYVVLNILGSWLLLLGIGMLYKTVGTLNFSHLAMRLNHMENNQTITMISLVFLVAFSSKAALVIFMWLPKAYAVLNTELAALFAALMTKVGAYALIRFFTLLFDHHPSVTHTLLVFMACITMIIGAFGVIAYKDIKKIAAYQVILSIGFIILGLGSHTISGVNGAIFYLANDIIVKTLLFFVIGSLVYMSGYRNYQYLSGLAKREPFFGVAFVVVIFAIGGVPPFSGFPGKVLIFQGAITNGNYIGLALMIVTSLIAMYSLFRVMFIMYFGDADGEQVQFRPLPIYRKGLLSVLVVVVLAMGIAAPVVLKVTEDATNLNMKEDVFQKNVNTHLKEVNHK | failed |
| MNMTAGRRAALTREQASSETMTMESSAYGEAVRAVRTGEISADEAANQLIDRMTEGEVLGLLDGDSSRWVLPFIPALLDRRPFVAGAVSRLGIPGIRFSDGGRGVVIGASTAFPVTIARAATWDPSLEERVGIAIGLETRARGANYSASVCVNLLRHPAWGRAQECYGEDPVLTGRMGSALTRGVRLHVMACVKHFALNSMENERFEVDVAVDEHALHEVYLPHFKAVVDAGADSVMSSYNRVRGEYMDVNRALLTDVLRREWGFSGFVTSDWVFGTHDAVASLEAGMDVEMPLRLLRARELPAALRNGVLARATVLQSARRVLRTCVEHSANRELAAPTRAVIASPAHRALAHQVAAESIVMLKNETVGAAPLLPLAPTIQHLAVIGRLAAQGNLGDHGSSRVRPPSTVSPLQGLREALPGVLISTTTGRDERRAAAMAAAAEMAIVVVGLDQHDEGESVVTGGVDVGVIGRTFGSGPLRQVLIGLAHLASRFVRGGDRSSLNLRPSDERLIQAVVAANPRTVVVLVSGSAILTEAWRDRVPALLLAWYGGMEGGRALASVLTGSEEPGGRLPFVLPTDAAHLPFFDSAAKSVVYDAQWGQRRLDGEGHRPAYPFGFGLSYTTLEHRLIDHTLDSSGGNANVHVTNKGHRKGSTVVQVYAADVSLRRPVAQLLGFRKVTLQPGAETTVRVVLDAGPTLQRDSTTRRWSPRSGVWALQASQHSPDSWENAVRLRRTEGLIDQEGTSDVKPA | failed |
| MAAVVAATALKSRGARNARVLRGILAGATANKVSHNRTRALQSHSSSEGKEEPEPLSPELEYIPRKRGKNPMKAVGLAWYSLYTRTWLGYLFYRQQLRRARNRYPKGHSKTQPRLFNGVKVLPIPVLSDNYSYLIIDTQAQLAVAVDPSDPRAVQASIEKEGVTLVAILCTHKHWDHSGGNRDLSRRHRDCRVYGSPQDGIPYLTHPLCHQDVVSVGRLQIRALATPGHTQGHLVYLLDGEPYKGPSCLFSGDLLFLSGCGRTFEGNAETMLSSLDTVLGLGDDTLLWPGHEYAEENLGFAGVVEPENLARERKMQWVQRQRLERKGTCPSTLGEERSYNPFLRTHCLALQEALGPGPGPTGDDDYSRAQLLEELRRLKDMHKSK | failed |
| MASVSVSHLILFIASMAIAASVAGVFTSSIGELSNAVSEQGLDVSSDVRTDVEIISDSGSDTIYDSGANTITVHVKNTGSETLAPVPGQVDVFVDGTFASDYTVTLEPNGGNSWRPGEVVRIDINDNLSGGDHRLKLIVNGDEEVFEFNT | failed |
| MNARSGDNVVLAILLSLLALVLFDMMGLIIKYLSPRYGAAELSAYRNFFGVFPSVIALWSSPGWHRAGRPWRIRQWRLGLMRGVYVTFAQFLFYYSLGKLAFATASTITYANAVFMTALAVPLLGERVGLMRWAAVLLGFAGVLLVMKPGSDSFTPDALAPLGAAFLYALTGVSARQMDSAVPSALINLYSVVAALVGALALALLSGGFTPLAQWSDLGWIAAMGGFGGTAVLCLVASYRMTEQSNLAPFSYFGIPIAFVAGWLVFDETPWADLFPGAFFIAGGGLMIVWRERIRSRAGRRISN | failed |
| MRILIPFKANNPKSRLSSILSEEERKELARLMLLDVIDAAKPFGEIKVVCPSELDVEGVEVVVDTSDLNTTVNKVMDEAPLAVIMSDLPLLSEEVLKRFFETEGDVVVAPGRKGGTNMLLVRKRGFRVSYHFGSFFKHLEMARKMGMKAKIFDSFYSSVDIDDESDLLELMMHGSGKKSYEFLRKIGFSVSFEETPRLERRVFMQ | failed |
| MKEIRIILMGTGNVGLNVLRIIDASNRRRSAFSIKVVGVSDSRSYASGRNLDISSIISNKEKTGRISDRAFSGPEDLMGEAADLLVDCTPASRDGVREYSLYRMAFESGMNVVTANKSGLANKWHDIMDSANQNSKYIRYEATVAGGVPLFSVLDYSILPSKVKRFRGIVSSTINYVIRNMANGRSLRDVVDDAIKKGIAESNPQDDLNGLDAARKSVILVNHIFGTEYTLNDVEYSGVDERSYNANDRLVTEVYVDDRRPVAVSRIISLNKDDFLMSIGMDGLGYQIETDSNGTVNVSDIYDGPYETAGAVVNDILLLSKVQK | failed |
| GSSGSSGDGTCTGAMPDGALDTAVCADEVGSEEDLYDDLHSSSHHYSHPGGGGEQLAINELISDGSVVCAEALWDHVTMDDQELGFKAGDVIEVMDATNREWWWGRVADGEGWFPASFVRLRVNQDEPADDDAPLAGNSGAEDGGAEAQSSKDQMRTNVINEILSTERDYIKHLRDICEGYVRQCRKRADMFSEEQLRTIFGNIEDIYRCQKAFVKALEQRFNRERPHLSELGACFLEHQADFQIYSEYCNNHPNACVELSRLTKLSKYVYFFEACRLLQKMIDISLDGFLLTPVQKICKYPLQLAELLKYTHPQHRDFKDVEAALHAMKNVAQLINERKRRLENIDKIAQWQSSIEDWEGEDLLVRSSELIYSGELTRVTQPQAKSQQRMFFLFDHQLIYCKKDLLRRDVLYYKGRLDMDGLEVVDLEDGKDRDLHVSIKNAFRLHRGATGDSHLLCTRKPEQKQRWLKAFAREREQVQLD | not failed |
| MHLKEILAQFSFFTAIPVKSSASLEEIAESSYISPIIVGISLGLIESVAYLILYRILGELTGIVLLGIIELLRGFNHLDGLLDLGDALMIRGNREKKIKALKDVEVGSGGIGLLLVYLSIQIVALLKLDFSLYTIFYLISSNVLSMSLSLYILSTISPIPESNLGRIFHDKLKGKSTILLLELIPFISLYNVIVFIIFYMIMYKICGSLGGSSGDIAGASITLSFPLFLITDEITNLNYSLLSILCYLFSHLH | failed |
| MISTWHKNNNSPRLTVSARIVAKRQNTTYHNQPNAGDTSGAHGYHTTSSTTYYVTFQVESGDRIEMSVSGSEYGKLTEGDEGKLTFQGTRYLQFNMENLEHHHHHH | failed |
| MSRHPARTGEKTFFGHPFQLSTLFHIELWERFSFYGMQGILLIYLYYTADKGGLGIDKTLAGGIVGAYSGSVYLSTILGAWFADRVWGAEKTLFLSGIVVMLGHIVLAAAPGLYGLLIGLIFIALGSGGVKSTASSMVGALYEQDEMRPLRDAGFSIFYIAINIGGFLGPLLTGLLQENIGFHYGFGAAAVGMAFGLWRYSLGRKNLPHPTVPHPLSKGQGKTAAAVGITLIAALATAIKTGLVNLDNFSGILLSTVILAVIAYFARLLTNPRVSSDNKRHIIAYIPLFLTICMFWAVWFQIYTVATVYFDETVNRTIGSFTVPVAWKDSMQSLWVILFSGLMAAMWTKMGRKQPKTPLKFAMAVFVTGASFLGFVPFISSGTPMPIAVFALIVLAITIGELMISPIALSISTKIAPPLFKTQMVALNFLAFSLGFTLGGVLFEKGYQAGDEIGFYRLLFYIGAATGFLLLLLVPKLNKMLEGTD | failed |
| QHDSSRKLGLLQEMIGGGWWRYWAEQELFELAPALHDSLGLTGEYRRVPLEHLQGLLQPADADELGLRLRASLRSGQALAQDLCLRQPDSRGERRWLRIEGRPLGRGSALGLSGVLLDISEGRRQEER | failed |
| MSKPAITLWSDAHFFSPYVLSAWVALQEKGLSFHIKTIDLDSGEHLQPTWQGYGQTRRVPLLQIDDFELSESSAIAEYLEDRFAPPTWERIYPLDLENRARARQIQAWLRSDLMPIREERPTDVVFAGAKKAPLTAEGKASAEKLFAMAEHLLVLGQPNLFGEWCIADTDLALMINRLVLHGDEVPERLVDYATFQWQRASVQRFIALSAKQSG | not failed |
| MQVRTLTPDDLPQACALCMDAFMQAVAPTLSAQGIETFTQVSAPQAFAERMQGDNLMLACFVEGAIAGLIELKEGRHIAMLFIAPGLQRQGIGKRLMNAALEHASAEVVTVKASLSSVPAYQRYGFTLAGDVGEFAGLVYQPMEKRLPTQPALEHHHHHH | not failed |
| KTIFVIVPTNEEQVAFLEALAKQDELNFDWQNPPTEPGQPVVILIPSDMVEWFLEMLKAKGIPFTVYVEEGGSENLYFQ | not failed |
| MPFLYRLASLLIALLVLPVQAAEMRVALLRTSGVETLDALTVDGGSWVRRVPLSHTAVLIEHHAATLLFDTGLGRDIDAQFRADMPWWAAPLFAYQKVVPARDQLDAAGIRVDRILLSHAHWDHASGLVDFPEVPVWAPYEEIAFSRIATPPAAFPSQFRHGVRWQPYSFDPRPFMGFDESLDLFGDGRLVLVPLPGHTPGSVGLFVTLDSGRRLFFSGDTSWRLEGVEGPRQKFFAGRALVDRDPARTLAQLAKIRLLLRSDPRLSVIPAHDARVQAALGYFPHWLE | failed |
| PETYGRLVEPTTLKIERLLPGPIERVWAYLTQSDLRRRWLASGEMRLAPDAPFELVWRNDELSDPPGHRPEGFSEEEKMASRIITVVPPHHLVFSWGESGEVSIELQALGKDVLLTLIHRRLVGRKTKLDVSAGWHVHLDILAARLQEKEPAPFWDTWLALKEEYEPR | failed |
| MILINLFITFLKIGLLNFGGGNGIAAIINNEIINNKHWITKEEFVNMITISRITPGPIATNIATYVGMKTAGIAGAIIATVALITAPIIIMIIILLILHKIGFLNYCLENLKPIIVALWIITIIILLENTYLKIENNKTELLKTLAIVGINFFILFFYNKISPALVIILSGFFYTLI | failed |
| MRNDTMLNDTPFQDDDSRWQAVVTRNKAADSCFIYAVKTTSIYCAPSCASRQPRRENVVFFATADEAQAAGFRPCKRCRQGMLSRQEQQAQQIARACRMIEQSDRPPTLAVLAQAVGMSAFHFHRVFKTTTGLTPKQYASAYRHRQLREHLADNGEVTAAIVAAGYDASGRFYAEAGTHLGMTPTAFQNRGKGMTIHFAIGRCSLGDVLVAESEKGICAILLGDDPEPLLNTLQEMFAHAHLVGGDAAFEQRMSQVVGFVDDPSIGLTLPLDIRGTAFQQRIWQALRAIPVGETLSYREVAERIGSPAAVRAVAGACAANRLAVAIPCHRVVRHDGALSGYRWGVERKRALLEKEQVEKKQIVHQPEESPP | failed |
| MAKAIVSIFVVFFIFFLVISDVPEIEAQGNECLKEYGGDVGFGFCAPRIFPTICYTRCRENKGAKGGRCRWGQGSNVKCLCDFCDDTPQ | not failed |
| MLTTFLATVIGWYLVIVSLFLLFHNEHAKSAMAEIIAHRGSQLIMAIVTLITGLLLVVSHNIWVMGWPVVITLFAWLVLLGGLIRFLCPDTAVRIGQSFVDNPMRLKIAAVIFFIIGLFLLFNVYYVYLK | failed |
